Source: patent US20160032297, “METHODS FOR THE IDENTIFICATION OF VARIANT RECOGNITION SITES FOR RARE-CUTTING ENGINEERED DOUBLE-STRAND-BREAK-INDUCING AGENTS AND COMPOSITIONS AND USES THEREOF” (E.I. DU PONT DE NEMOURS AND COMPANY, published 2016)

Target: T1, MHP14+ meganuclease (single-chain engineered I-CreI) (artificial)
T1 chain: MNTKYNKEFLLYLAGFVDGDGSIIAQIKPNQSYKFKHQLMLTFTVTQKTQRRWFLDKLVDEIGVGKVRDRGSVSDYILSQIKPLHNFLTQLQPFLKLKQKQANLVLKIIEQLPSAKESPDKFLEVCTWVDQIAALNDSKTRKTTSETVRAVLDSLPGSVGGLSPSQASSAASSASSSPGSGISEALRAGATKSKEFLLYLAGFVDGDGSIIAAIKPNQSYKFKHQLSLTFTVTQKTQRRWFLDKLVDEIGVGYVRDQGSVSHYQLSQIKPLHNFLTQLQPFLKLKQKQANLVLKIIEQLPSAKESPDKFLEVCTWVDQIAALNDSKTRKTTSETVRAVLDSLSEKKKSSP
Experiment: cleavage_in_vitro; depends on reaction temperature
Conditions: tags: expressed from pQE80 in E. coli, Ni-NTA purified
Protocol: To generate material for the capture of genomic variant recognition sites, in vitro assays were carried out with 114 nM of purified meganuclease protein isolated as described in Example 2 and 6.07 μg of purified maize genomic DNA at 32° C. for 80 minutes in a final volume of 80 μl in the presence of digestion buffer (50 mM Tris-HCl (pH 7.9), 100 mM NaCl, 10 mM MgCl₂, 1 mM DTT, […]). After 80 minutes, the entire reaction was stopped with an equal volume of stop buffer (100 mM Tris-HCl (pH 8.0), 600 mM NaCl, 2% SDS, 100 mM EDTA, 1 mg of proteinase K per ml) and incubated at 50° C. for 30-45 minutes. Stopped reactions were purified by phenol/chloroform extraction and ethanol precipitated in the presence of 0.2 M NaCl. Precipitated genomic DNA was washed twice with 70% ethanol, dried, and resuspended in 34 μl of water. […]

B1: MHP14+ maize genomic variant site (dsDNA)
DNA 1: CAAGAAGAAGCACGTCAGCTTA
DNA 2: TAAGCTGACGTGCTTCTTCTTG
  relative cleavage activity: ~3 fold vs intended site
